Reference: patent US10100120B2, “Antibody which specifically binds to human CRTH2” (KYOWA HAKKO KIRIN CO., LTD, priority 2015, dated 2018)

Experiments:
Th2 cells = assay: Cytotoxic activity against Th2 cells: cytokine production of PBMC after antibody treatment; format: cell-based, human; conditions: antibody 10 μg/mL 20 hours, then anti-CD3/anti-CD28 stimulation 3 days
Method: The mononuclear cell layer prepared in the same manner as in Example 13 was washed twice with RPMI-1640 (Wako Pure Chemical Industries) to which 1/10 volume FBS (GIBCO Inc.), 200 mM-L-Glutamine Stock Solution (NACALAI TESQUE, Inc.), 10 mM MEM Non-Essential Amino Acids Solution (GIBCO Inc.), 100 mM Sodium Pyruvate (GIBCO Inc.), 1 M HEPES Buffer Solution (GIBCO Inc.), and 1/100 volume Penicillin-Streptomycin, Liquid (GIBCO Inc.) were added [hereinafter, referred to as peripheral blood mononuclear cell (PBMC) culture medium], thereby preparing a 1×10^7 cells/mL cell suspension.
The prepared cell suspension was seeded in a 96-well plate at 100 μL/well, chLym2 antibody, the humanized anti-human CRTH2 antibody LV0HV1 or the isotype control antibody described in Example 8 was added thereto at a final concentration of 10 μg/mL to cause a reaction in a 5% CO2 incubator at 37° C. for 20 hours.
The cells after the reaction were washed 7 times with a PBMC culture medium to remove the test antibodies thoroughly. Thereafter, the cells were suspended with 100 μL of PBMC culture medium and seeded in a plate in which anti-CD3 antibody OKT3 (Abeam plc.) was immobilized at a concentration of 1 μg/mL. Next, an anti-CD28 antibody (BD Biosciences) prepared to have a concentration of 2 μg/mL was added thereto at 100 μL/well to cause a reaction in a 5% CO2 incubator at 37° C. for 3 days.
The supernatant after the reaction was recovered, and cytokine in the supernatant was quantified using Human IFN-γ Flex Set (BD Biosciences), Human IL-5 Flex Set (BD Biosciences), and Human IL-13 Flex Set (BD Biosciences) according to the attached instructions.

human CRTH2 [1] = molecular target: T1, human CRTH2 (Homo sapiens, UniProt Q9Y5Y4); assay: Reactivity in presence of ligand DKPGD2, human CRTH2-expressing 293 EBNA cells; format: binding; conditions: DKPGD2 10 μM; antibody 0.3, 1 and 3 μg/mL; relative to absence of DKPGD2; FIG. 13
T1 construct: expressed in transfected cells
T1 sequence (Q9Y5Y4 1-395): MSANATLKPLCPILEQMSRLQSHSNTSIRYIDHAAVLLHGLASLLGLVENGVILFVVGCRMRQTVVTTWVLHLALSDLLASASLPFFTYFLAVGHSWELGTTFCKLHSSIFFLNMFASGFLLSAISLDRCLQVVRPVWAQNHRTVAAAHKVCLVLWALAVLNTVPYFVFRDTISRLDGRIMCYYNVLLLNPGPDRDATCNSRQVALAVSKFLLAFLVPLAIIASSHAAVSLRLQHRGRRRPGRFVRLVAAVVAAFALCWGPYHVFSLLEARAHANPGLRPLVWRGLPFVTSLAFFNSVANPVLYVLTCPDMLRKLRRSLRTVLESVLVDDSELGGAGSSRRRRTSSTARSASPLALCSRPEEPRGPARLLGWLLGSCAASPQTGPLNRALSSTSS
Method: Human CRTH2-expressing 293 EBNA cells were established by introducing the human CRTH2 gene expression pAMoh vector prepared in Example 1-(1)-(ii) into 293 EBNA cells (Invitrogen) using Fugene 6 (Promega Corporation) and selecting drug-resistant cells by culture medium formed of 10% FBS, 0.25 mg/mL of G418 (NACALAI TESQUE, Inc.), […] (NACALAI TESQUE, Inc.), and 300 μg/mL of hygromycin B (Wako Pure Chemical Industries) in DMEM.
The human CRTH2-expressing 293 EBNA cells were peeled using 0.02% EDTA solution (NACALAI TESQUE, Inc.), washed with PBS, and suspended with the above-described culture medium. […]
After the cells were washed 5 times with SM, 10 μg/mL of goat anti-Human IgG Alexa 647 (Molecular Probes) diluted with SM was added to wells to which LV0HV1, hu19A2 v52, hu8B1 v1, ch3C12, or ch31A5 was added, 10 μg/mL of goat anti-Rat IgG Alexa 647 (Molecular Probes) diluted with SM was added to wells to which BM16 was added, and 10 μg/mL of goat anti-Mouse IgG Alexa 647 (Molecular Probes) diluted with SM was added to wells to which 301108 was added at a final concentration of 10 μg/mL to cause a reaction at 4° C. for 40 minutes. After the cells were washed again, the cells were suspended with SM, and the fluorescent intensity was analyzed by flow cytometry (BD Biosciences, FACS CantoII).

human CRTH2 [2] = molecular target: T1, human CRTH2; assay: Binding activity against Azami-Green fusion human CRTH2-expressing CHO/DG44 cells; conditions: 2-30000 ng/mL, compared with monkey CRTH2; FIG. 21
Method: The Azami-Green fusion human CRTH2-expressing CHO/DG44 cells and the cynomolgus monkey CRTH2-expressing CHO/DG44 cells established in Example 24 were peeled using 0.02% EDTA solution (NACALAI TESQUE, Inc.), washed with PBS, and suspended with SM. Next, the cells were seeded in a 96-well plate such that each well had 2×10^5 cells, and humanized Lym2 antibody LV0HV1 or the anti-DNP IgG1 antibody at each of final concentrations 30000, 7500, 1875, 469, 117, 29, 7, and 2 ng/mL were added thereto to cause a reaction at 4° C. for 40 minutes.
After the cells were washed three times with SM, goat anti-Human IgG alexa 647 (Molecular Probes) diluted to a concentration of 10 μg/mL with SM was added thereto at 100 μL/well to perform a reaction at 4° C. for 40 minutes. The cells were washed with SM and resuspended with 100 μL of SM, and the fluorescent intensity was measured by flow cytometry (BD Biosciences, FACS CantoII).
The data was analyzed by FLowJo 7.65 (Tomy Digital Biology Co., Ltd.).

B1: LV0HV1: humanized Lym2 antibody, VL LV0 (SEQ ID NO: 33), VH HV1 (SEQ ID NO: 51) (antibody, V domains shown)
VH: EVQLVESGGGVVQPGRSLRLSCAASGFTFSNYYMAWVRQAPGKGLEWVATISYDGSSTYYRDSVKGRFTISRDNAKNSLYLQMNSLRAEDTATYYCARHRGYYYSGAGYFDYWGQGTMVTVSS
VL: DIVMTQTPLSLPVTPGESASISCRSSQSLEYSDGYTYLEWYLQKPGQSPQVLIYGVSNRFSGVPDRFSGSGSGTDFTLKISRVEAEDVGVYYCFQATHDPLTFGQGTKLEIK
In the case of B1, the “production of IL-5 (Th2 cytokine)” value (Th2 cells; FIG. 12(A)) is reported as “reduced”, the “production of IL-13 (Th2 cytokine)” value (Th2 cells; FIG. 12(A)) is reported as “reduced” and the “production of IFN-γ (Th1 cytokine)” value (Th2 cells; FIG. 12(B)) is reported as “not changed”. The “binding to human CRTH2-expressing cells in the presence of DKPGD2” value (human CRTH2 [1]) was “almost not decreased” and the “binding activity against human CRTH2” value (human CRTH2 [2]) was “substantially the same as each other”.
